assay: soluble on expression in E. coli; label from the status in PepcDB or PDB records

Row | Sequence | soluble on expression in E. coli
1 | MGSDKIHHHHHHMYVLAIDQSTSGTKAIIFDEKGGIVHRVTVYHKQYYPKPGWVEHDPEEIFRNTLDACRKVIEESGIKPLEIEALAITNQRETTILWEKKSGKPVYNAVVWQCQRGASLCEEIKKRGLEGKIKEKTGLVVDPYFSASKIRWILDNVEGVKNKAKQGEIAFGTVDSWLIWKLTKGEVHATDFSNASRTLLLNIHELRWDEEVLEIFEIPPEILPELKSSDSVFGYTDLGFLPKKIPIVGVMGDSSAALFGQGGFYSGDIKVTYGTGSSTMLNIGEKPNVSDSPIVCSVGWVVKETSSYVLEGNIHSAGDTIVWLKEKLGIISDPSETEKIALSLENNGGVYLVPAFVGLGAPYWRSDVKAAILGLQRNHGKEHVVRAALESIAYQVRDIFEEMVRISSKEPTEVRADGGITRNRFLMQFQADILNIPVLVSNIEEVSARGVAFVALLHLGAFSDLEEIRQKITYREKYEPRMGDELREMYYEGWKTAIRKLLTE | not soluble
2 | ITELTNIHLIKGNLQANSKNEVFAELAQMLLENNRISNKEDFLNDIEIRERLSVTSMDGIAYPHSKSKAVTKPAIAVGVKHEGIEYGDEEGIKPTVFFMIASPDNGADHHIYVLQELFGKFSEEFIEDIHNAKNEHQILNISIQS | soluble
3 | PSEIFYQAKVREQKERHARYHDTTYNLEPDIKSTPGGLRDIHTLSWVARRHFGATSLYEMSRFGFLTDAEYRELVECQDFLWRVRFALHIELKRYDNRLTFAHQVQVARHLGYFGEGNRGIEMMMKEFFRTLRRVAELNKMLLKIFDKAILNNGEEAEAVIIDDDFQRRGNMIEARKPALFQARPETILDMFLHMASDSTIESVAPATMRQLRTARRRLN | not soluble
4 | MGSDKIHHHHHHMSSADLLAPYRGPLTVEQVATGMNAATANARRLAQDARLLLANKRWPTAASLAALSIEESGKVVILRRFVTANTDDIKRLWKEYRTHTKKNINWILPELVAKGARRLEDFKPIVDSASDHPDILDAMKQIGFYTDCLGKTNWSRPTEVVDETLAKNLVNAAEVLSPDRNISVRELELWAEHMGPVWNKNLDWMKQALVNWYGAMQAEGLMPAGSNKMQAFVKEGLATDQAKQIGREV | not soluble
5 | FLLEIGLEEMPAKYVTSSVLQLEKRVTDWLKDNQIEFKEIKTYSTPRRLTVLVEEMAEEQANRVEEAKGPAKKIALDDEGNWSKAALGFAKSQKVAPEDLTFREIKGVEYIYIKKEVIGEKTTALLPSLEKVVTSMTFPVSMHWGSNDLRYIRPIKWLIAMFGEEIIPFEITGVSTSNTSRGHRFLGKTATINQPSDYPHALLEQFVVVNASERKQAIVEQLRELETMENWQIREDDDLLEEVTNLVEYPTVLAGNFEKEYLELPEEVLITTMKEHQRYFPVFSQEGELLPHFVTVRNGNHENLDTVARGNEKVLRARLSDADFFYQEDLKITIDEAVAKLQNIVFHEKLGTLTEKMERVQKVALMLADYLNWQEEDKQDIIRLTNIYKFDLVTNIVGEFPELQGLMGEKYALLQGEKPAIATAIREHYLPSSAEGVLPQTDLGSLIAIADKLETLIGFFCVNIVPTGSADPFGLRRSAFGAMRIIQANGWDIPMLEVISRIVDMERAEGATELPSADVKKEVQTFLKNRLRVILQGHHIRHDIIDAVIGGDPNV | not soluble
6 | MVRVKRSQLREGCVLAEDVLGKTKRPIIPKNTVITKPLLLVLEKFLVEEVDVEPLLANGEPFPNVDSASTAAAKQPMAFYLEAVQRYKTWFQSWQAGLPVDIGEIRGVIISLFERMAGQKRELLMLHHYATKDEYLHHHAVSVGLLAGFLAMQLGYSEGECHQIALAGVLADCGMAKVSKRILTNPSALTEAEFNEVKQHPVFSYRMVQKIPALNHGAKLAVLQHHERNDGSGYPLGVKAERIHPYSQIVAVADVYHAMTSERLYRRKQSPFRAIETMQREQFGKLSTEAVAALVNNLIGLQTGAVVKLSNGEMAEVMFIPSDEPARPIVKIIETGQLLSLSVQRDIYIEEMVQG | not soluble
7 | MAFGVLALVHTACENAKYDVIDNLVYINEASTSKTKELTLTEGTTRTSLTVRLVNIINQTIKANLFIDESVLDAYNKKNETNYKMPPKEYISFPESVTIEAGSVSADPVNVDIKSFEAEGGAQYAIPISIKNVEGGIEKSESSSSFLLVLVKPLKQAVPKLTWYNGMHAAPEGAWGLALPNYTLEWWSKVTSKSGNGGYTKNNQAIINSGGLGTELYIRFGDLIYSENGSYKNNFLQVKTMGSQFDTGDPTKGKGLEAQKWYHFAVSYDAASGTTLLYQNGTVVASLSSSIGQPMNIDQFQMISSGEEYFPDFCEMCQVRFWKVTRTVNQIKKSMYTEVDYTDKNLLLYLPMNEGEGATILHDVTGNGHDVEIGNSNLGNENRQKVTWETYSFAQ | not soluble
8 | MGSDKIHHHHHHMASLSELAVFIAVAEQGSFVGAGRVLGVSASAVGKRISRLEVDLGVRLLQRNTRSLALTAEGETVLSRGRSLLDEAESLRVVLERSSRQPGGVLRLSLPPIGGVLMAELAAFRQRYPEVALELDYSERNVDIIEEGFDAAIRVGAGDDGKLRSLALPGFRRLIVAAPDYLVRHGQPRSAAQLAEHQLIHYRSPNSGKLEAWPLVNAELPRALVCNSVHARLDFALQGQGIACLPDISIRRELEDGSLRPLLGSENGEKVVLRLLWPSSRGLSARMEAFLGFMRERSGAAPCENFKVRA | not soluble
9 | MSLDSISLHKIFYKVLKNNTLPECQVIAAEGLCKLYLADIFNDDDLFETLILSYFSPSNSSNEGLIQAFAFCIPVYSYSHVLHQQRITKIASDVLLRLYMLWVDFQANEETDENIETMLKPNVILQQLISWTDPRKLIGENEKAINDNYQLNFLLDIFQQFPKFDKKNIKKMILTNINAFYVSSDNDMHKLREIKEHLEDIIENEIIDTMTLNSLEKFKNTIIDCLEEAKEKSENQTKDEIESSDGEYSMILESSNIGNISDVEKDVNVEAAQFSDSENDFEDSDDDTSRKRNRSKLEESIANNTSEKLSVNEDYDSEDTNEPKNDAKDINEPEDGTKDVIMEDSVSSNVIENSKNVSFILPDNDYSSSESSMSVDDESYKEEGHHHHHH | soluble
10 | MIYLRKLKKEDLMSLWEMAYSQLNPVWKQYDAPYYDDYQYFSNFKEFELQKSESILSNSNRLGIFVDDKLVGTVSRYWVCKETRWMELGIGIYDKKFWNTGIGKVAMLQWIDRTFQDYLELEHLGLTTWSGNIGMMKLAEKLRMKKEAHIPKVRYYQGKYFDSIKYGILREDWEKINDGYYQINGNS | not soluble
11 | MGSDKIHHHHHHMNAVISILVENTTPSPSLIGEYGFSALVEVDERKILFDTGSSDALFKNAENLGVKLEEVEALVISHGHFDHTSAVIPFLQRFGPKKLYLHPGIFSQRYLQGKKGLGPNIGCPFEPEDLVKNGAEIIFIDSFSEIMPGVFISGEIPRRNSFENTGGNFKVATHHGLLEDRLLDDMALLVDHPEGLIIISGCAHSGMINTIEYIREKTGRSKILAFIGGTHLITASEDRLAQTIAVLKMMDIEKIAVGHCTGFYAAARLLNELGPRVIKADTGMSFSF | not soluble
12 | MTENIHKHRILILDFGSQYTQLVARRVRELGVYCELWAWDVTEAQIRDFNPSGIILSGGPESTTEENSPRAPQYVFEAGVPVFGVCYGMQTMAMQLGGHVEASNEREFGYAQVEVVNDSALVRGIEDALTADGKPLLDVWMSHGDKVTAIPSDFITVASTESCPFAIMANEEKRFYGVQFHPEVTHTRQGMRMLERFVRDICQCEALWTPAKIIDDAVARIREQVGDDKVILGLSGGVDSSVTAMLLHRAIGKNLTCVFVDNGLLRLNEAEQVLDMFGDHFGLNIVHVPAEDRFLSALAGENDPEAKRKIIGRVFVEVFDEEALKLEDVKWLAQGTIYPDVIESAASATGKAHVIKSHHNVGGLPKEMKMGLVEPLKELFKDEVRKIGLELGLPYDMLYRHPFPGPGLGVRVLGEVKKEYCDLLRRADAIFIEELRKADLYDKVSQAFTVFLPVRSVGVMGDGRKYDWVVSLRAVETIDFMTAHWAHLPYDFLGRVSNRIINEVNGISRVVYDISGKPPATIEWE | soluble
13 | MREYKVVVLGSGGVGKSALTVQFVTGSFIEKYDPTIEDFYRKEIEVDSSPSVLEILDTAGTEQFASMRDLYIKNGQGFILVYSLVNQQSFQDIKPMRDQIIRVKRYERVPMILVGNKVDLEGEREVSYGEGKALAEEWSCPFMETSAKNKASVDELFAEIVRQMNYAAQPNGDEGCCSACVIL | soluble
14 | MMLSRAKPAVGGESPHTDKRKKKGRKIPKLEDLLSQRDFTGAITLLEFKRHVGEQEDDTNLWIGYCAFHLGDYKRALEEYENATKEENCNPEVWVNLACTYFFLGMYKQAEAAGFKAPKSRLQNRLLFHLAHKFNDEKKLMNFHQNLQDIKEDQLSLASNSEIHLPLPPECWD | not soluble
15 | MVGPLKIGRHEVKYPLIQGGMGVRISGGRLAGHVAKCGGVGLVAAAGISLSGLFTGANYLQSNPEAMRKELRKAYAIAPDGVIGVNIMVALTDYEELVRASIDGGAKVIVCGAGLPLTLPELTAHAPEVALVPIVSSVRAAQLIAKKWEKGFGRLPDAVVVEDPDTAGGHLGEKLENIGAGTYDQYGTIRAIKAYFLEEYGVSVPVVAAGGIWDRDDVLHAFEQGADAVQMASRFVPTVECDADDAYKQAYLECRREDIGLIMSPAGLPGRAILRNQDQIVLHDQLKGVACGNGCLKKCSYKETGERFCIVNALDRAQRGDVETGLVFCGTNAWKADRITTVQEIFDELFAVGEESEKAA | not soluble
16 | MGSDKIHHHHHHMDKKSSVSPLPTKALSDDKNSPITVWHIGGEDIRLRIPLLLKLREKGFNVGAVGSEDGNAFADNQIPYFRYTLERGINPWADIYTRSQLSALFRQHQPDIVHSFDTKPAMIAPIVAMKTGIPGRVRTITGMGYVFSSTSTLALALRPIYRHLQRQAAIATGITIFQNPDDREYFCKHKMVLDGRDDLVLGSGIDVEGLMKNSAEPEKLAATRRELGLEGQLVVTMISRLVISKGVREYLQVASIVCQQMKNVTFLLIGSVSSEGGQAIPIQEIHQQAGVVRYLGPRNDIPTLLNLSDVFVLPSYYREGVPRVLLEAATMELPLITTDMPGCKEVVKDGWNGLLVPPRDTKALATAILKLLNSPEQRNLMGKRSRVHVQTNFSLNQVADAYADIYNRVLKLPKTLK | not soluble
17 | MHDRASQMVIFYALAKAGSFTAAAKQMGVSTSHVSKQLGALEETLNLKLVHRTTRSLILTDAGQQFFLYCETIYNAMTEASAIMDDERDEVAGILRLGLSQSFGTMHIIPAIDKLRNQYPDLQVEVRLFDHQADMLKDGLDLWVTNFEDLPEGYVAQRLADSNFVLAASPDYLIDKKVPHHPLDLVEHNCLTYQSRYRDYSNWDFSKGNESLCVKVSGNYRVDLAEAVRDATISGWGIAYLASYLLTNEFNDGKLIQLLPGWKASQKMPIYAVYPSRKHLPRKISAVIDFLREHIGQPPYWDKALMKRVKL | soluble
18 | MELSDSKVIAADRATVWAALLSPEVLKECVPGCQEMSGSPDEGFEATVVQKVGPVKATFKGGVTLSEMVAPESLTLSGEGKGGAAGFAKGAARVRLEEGADGTTILSYEVEAKVGGKLAQLGSRIIDGFARKMADQFFTRFQEVLEGPGEAESPEAEASGDAKKKGWFKRVISGLEHHHHHH | soluble
19 | MNLNNIRSSMTESTKSKDESMRSHLVKPGSVYDGIEPGELGETTESVQDRVRQLESRNSFLEEQCSQIESEKRYLENQKIKYEREIRKLQSELDRMKTSPLIIGTVIDVIKNDRIIVRSSNGPQFLVNVSQYIDEKKLLPGAKVALNQHTLAIAEVIPSTEEPFVAAMEVIESVEVDYDQIGGLDEQIQELQEAVELPLTSPERFARIGIEPPKGVLLYGLPGTGKTLLAKAVAHRTNATFIRVVGSELVQKYIGDGSKLVREIFEMARKKAPSIIFIDELDSIAARRLNETTGADREVQRTLMQLLAEMDGFDKRKNIRIIAATNRPDVLDPAILRPGRFDRLVHVPMPGIEARGKILKIHCEKMTLAEDIDFKKLAKATEGMSGADLKAIATEAGMFAVRRDKELVEMEEFLEAVEKVSMAADTQKMMPSNLPETMFV | not soluble

Source: the DeepSol protein solubility set
